Values of other authors as cited in publication PMC5467299.

Columns and labels:
[1] = target: Plasminogen (Homo sapiens) (UniProt P00747)
tPA (Homo sapiens) = tPA (Homo sapiens) (UniProt P00750)
Chain of UniProt P00750 (P00750 36-562): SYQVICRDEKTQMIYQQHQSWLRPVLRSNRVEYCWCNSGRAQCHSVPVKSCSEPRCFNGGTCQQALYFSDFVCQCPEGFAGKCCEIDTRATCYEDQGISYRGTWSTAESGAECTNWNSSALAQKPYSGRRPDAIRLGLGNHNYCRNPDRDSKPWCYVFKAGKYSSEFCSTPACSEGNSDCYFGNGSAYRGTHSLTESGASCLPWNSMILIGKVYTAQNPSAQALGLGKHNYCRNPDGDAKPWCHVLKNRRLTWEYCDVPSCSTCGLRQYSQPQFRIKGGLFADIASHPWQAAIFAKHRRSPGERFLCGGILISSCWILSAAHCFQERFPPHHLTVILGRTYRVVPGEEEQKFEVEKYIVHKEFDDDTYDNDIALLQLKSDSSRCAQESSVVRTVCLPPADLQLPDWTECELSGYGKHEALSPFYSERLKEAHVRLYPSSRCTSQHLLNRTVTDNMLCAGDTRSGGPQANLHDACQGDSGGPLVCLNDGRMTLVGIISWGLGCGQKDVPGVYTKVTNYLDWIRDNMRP

Chain of UniProt P00747 (P00747 20-810): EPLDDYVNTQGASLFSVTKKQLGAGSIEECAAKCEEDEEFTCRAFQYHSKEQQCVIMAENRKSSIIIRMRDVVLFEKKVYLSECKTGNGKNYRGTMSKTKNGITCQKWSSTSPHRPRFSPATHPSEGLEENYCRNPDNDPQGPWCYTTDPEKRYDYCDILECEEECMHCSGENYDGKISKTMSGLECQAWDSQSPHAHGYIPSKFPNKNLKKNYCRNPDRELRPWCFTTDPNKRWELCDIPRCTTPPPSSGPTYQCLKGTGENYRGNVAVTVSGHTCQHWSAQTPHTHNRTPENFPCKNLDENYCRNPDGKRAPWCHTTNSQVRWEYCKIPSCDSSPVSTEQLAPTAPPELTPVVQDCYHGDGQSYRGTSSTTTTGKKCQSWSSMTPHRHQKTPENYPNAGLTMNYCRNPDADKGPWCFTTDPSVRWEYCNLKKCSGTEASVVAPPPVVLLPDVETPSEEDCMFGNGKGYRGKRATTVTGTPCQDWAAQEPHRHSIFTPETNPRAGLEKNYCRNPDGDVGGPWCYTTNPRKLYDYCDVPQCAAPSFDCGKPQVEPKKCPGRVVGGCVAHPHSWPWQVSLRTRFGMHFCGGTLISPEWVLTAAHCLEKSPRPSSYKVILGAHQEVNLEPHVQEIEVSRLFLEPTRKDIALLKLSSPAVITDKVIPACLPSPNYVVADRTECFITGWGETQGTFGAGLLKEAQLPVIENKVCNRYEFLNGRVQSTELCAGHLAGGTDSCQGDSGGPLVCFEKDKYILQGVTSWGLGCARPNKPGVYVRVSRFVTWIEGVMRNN

- Kd [1]: 1 µM
- Kd (tPA (Homo sapiens)): 1 µM
Substance: Fibrin alpha chain 148-160 (from UniProt P02671)
